Measured values: paper doi:10.1101/2025.06.27.661946 (bioRxiv, 2025)

Key:
[1] = molecular target: ATG101 (human) (UniProt Q9BSB4); assay: mass photometry
[2] = molecular target: ATG101 (human) (UniProt Q9BSB4); assay: cross-linking
[3] = molecular target: ATG101 co-expressed with ULK1 (human) (UniProt Q9BSB4); assay: mass photometry
[4] = molecular target: His-ATG101 (human) (UniProt Q9BSB4); assay: mass photometry
[5] = molecular target: phospho-mimetic ATG101 mutants S11D and S203D (human) (UniProt Q9BSB4); assay: mass photometry
[6] = molecular target: phosphorylated ATG101 (His-ATG101 phosphorylated in vitro by ULK1) (human) (UniProt Q9BSB4); assay: mass photometry
[7] = molecular target: phosphorylated ATG101 purified from insect cells treated with Okadaic Acid (human) (UniProt Q9BSB4); assay: mass photometry
[8] = molecular target: T1, ^MBPATG13 full-length (UniProt O75143 1-517); assay: fluorescence polarisation
T1 sequence: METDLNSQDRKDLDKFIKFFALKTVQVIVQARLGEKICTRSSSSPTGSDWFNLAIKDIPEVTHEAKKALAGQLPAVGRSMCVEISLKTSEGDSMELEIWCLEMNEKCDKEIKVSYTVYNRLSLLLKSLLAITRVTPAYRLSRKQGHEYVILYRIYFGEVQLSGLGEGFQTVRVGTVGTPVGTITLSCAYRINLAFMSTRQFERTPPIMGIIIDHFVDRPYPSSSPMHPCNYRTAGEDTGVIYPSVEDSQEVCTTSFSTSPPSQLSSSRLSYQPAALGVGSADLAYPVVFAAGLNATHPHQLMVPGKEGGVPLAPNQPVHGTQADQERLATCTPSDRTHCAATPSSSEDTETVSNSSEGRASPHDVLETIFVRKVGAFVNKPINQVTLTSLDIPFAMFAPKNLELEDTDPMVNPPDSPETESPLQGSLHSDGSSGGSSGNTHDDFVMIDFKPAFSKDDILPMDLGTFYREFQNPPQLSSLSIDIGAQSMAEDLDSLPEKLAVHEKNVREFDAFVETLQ

[9] = molecular target: ATG13-ATG101^Alexa488 (pre-formed complex) (UniProt Q9BSB4); assay: fluorescence polarisation

“ATG101 (from UniProt Q9BSB4 1-218) (natural protein)” showed a stoichiometry N [1] of 2 and a stoichiometry N [2] of 2.

Work on “ATG101 co-expressed with ULK1 (from UniProt Q9BSB4 1-218) (natural protein)” yielded a stoichiometry N [3] of 2.

In the case of “His-ATG101 (from UniProt Q9BSB4 1-218) (natural protein)”, the stoichiometry N [4] is reported as 2.

In the case of “phospho-mimetic ATG101 mutants S11D and S203D (from UniProt Q9BSB4 1-218) (natural protein)”, the stoichiometry N [5] is reported as 2.

Molecule “phosphorylated ATG101 (His-ATG101 phosphorylated in vitro by ULK1) (from UniProt Q9BSB4 1-218) (natural protein)” has a Kd [6] of 100 to 250 nM and a stoichiometry N [6] of 2.

“phosphorylated ATG101 purified from insect cells treated with Okadaic Acid (from UniProt Q9BSB4 1-218) (natural protein)” was tested, and the stoichiometry N [7] was 2.

B1: phosphorylated ATG101^Alexa488 (natural protein)
chain: MNCRSEVLEVSVEGRQVEEAMLAVLHTVLLHRSTGKFHYKKEGTYSIGTVGTQDVDCDFIDFTYVRVSSEELDRALRKVVGEFKDALRNSGGDGLGQMSLEFYQKKKSRWPFSDECIPWEVWTVKVHVVALATEQERQICREKVGEKLCEKIINIVEVMNRHEYLPKMPTQSEVDNVFDTGLRDVQPYLYKISFQITDALGTSVTTTMRRLIKDTLAL
B1 was tested, and the kon [8] was 14.7 M⁻¹ s⁻¹.

B2: ATG101^Alexa488 (natural protein)
chain: B1 chain
With B2 the kon [8] was 14.7 M⁻¹ s⁻¹.

B3: ^MBPATG9A (natural protein)
chain: MAQFDTEYQRLEASYSDSPPGEEDLLVHVAEGSKSPWHHIENLDLFFSRVYNLHQKNGFTCMLIGEIFELMQFLFVVAFTTFLVSCVDYDILFANKMVNHSLHPTEPVKVTLPDAFLPAQVCSARIQENGSLITILVIAGVFWIHRLIKFIYNICCYWEIHSFYLHALRIPMSALPYCTWQEVQARIVQTQKEHQICIHKRELTELDIYHRILRFQNYMVALVNKSLLPLRFRLPGLGEAVFFTRGLKYNFELILFWGPGSLFLNEWSLKAEYKRGGQRLELAQRLSNRILWIGIANFLLCPLILIWQILYAFFSYAEVLKREPGALGARCWSLYGRCYLRHFNELEHELQSRLNRGYKPASKYMNCFLSPLLTLLAKNGAFFAGSILAVLIALTIYDEDVLAVEHVLTTVTLLGVTVTVCRSFIPDQHMVFCPEQLLRVILAHIHYMPDHWQGNAHRSQTRDEFAQLFQYKAVFILEELLSPIVTPLILIFCLRPRALEIIDFFRNFTVEVVGVGDTCSFAQMDVRQHGHPQWLSAGQTEASVYQQAEDGKTELSLMHFAITNPGWQPPRESTAFLGFLKEQVQRDGAAASLAQGGLLPENALFTSIQSLQSESEPLSLIANVVAGSSCRGPPLPRDLQGSRHRAEVASALRSFSPLQPGQAPTGRAHSTMTGSGVDARTASSGSSVWEGQLQSLVLSEYASTEMSLHALYMHQLHKQQAQAEPERHVWHRRESDESGESAPDEGGEGARAPQSIPRSASYPCAAPRPGAPETTALHGGFQRRYGGITDPGTVPRVPSHFSRLPLGGWAEDGQSASRHPEPVPEEGSEDELPPQVHKV
For B3, the kon [9] was 15000 M⁻¹ s⁻¹.
